Data from article doi:10.1101/2023.03.23.533937, “From Microstates to Macrostates in the Conformational Dynamics of GroEL: a Single-Molecule FRET Study” (bioRxiv, 2023).

Biological target: T1, double-ring GroEL construct with the same labeling positions (255C/428C) (E. coli, UniProt P0A6F5 2-548; P0A6F5 2-548, 255C | 428C, AlexaFluor 488 and AlexaFluor 594 attached at the labeling positions 255 and 428 (cysteines))
T1 construct: GroEL subunit, E. coli, with cysteines at the labeling sites E255 and D428; unmodified GroEL subunit, E. coli; GroEL has 14 subunits in two heptameric rings; That the remaining subunits are unmodified wild-type GroEL is surmised from 'the same reassembly procedure'; also called double-ring variant; double-ring construct; source: prepared using the same reassembly procedure as the labeled SR1 …
Assay: intramolecular single-molecule FRET of one labeled subunit (conformational read-out); pulsed-interleaved excitation smFRET on diluted, freely diffusing labeled complexes; 1 mM ATP with a stoichiometric excess of GroES relative to GroEL (also with ADP-BeFx in place of ATP); about 22 °C
Conditions: both partners purified

B1: co-chaperone GroES (natural protein, E. coli)
chain: MNIRPLHDRVIVKRKEVETKSAGGIVLTGSAAAKSTRGEVLAVGNGRILENGEVKPLDVKVGDIVIFNDGYGVKSEKIDNEEVLIMSESDILAIVEA
notes: GroES, co-chaperone of GroEL, E. coli; a heptameric complex; Source and construct of GroES may stand in the supporting information; also called co-chaperonin GroES
binding result: binds
